This assay deals with T1, human CD47 protein (human, UniProt Q08722 19-139, limits assumed).
T1 construct: also called human CD47 antigen
Briefly: SPR Biacore, supernatant antibody Fc-captured, human CD47 analyte 5 nM. The method, then: Production and affinity ranking of humanized antibodies. The designed plasmids of heavy chain and light chain were sent for 3 mL transfection following GenScript's SOP. For affinity ranking, Antibodies were captured on the sensor chip through Fc capture method. Human CD47 protein was used as the analyte. The surface was regenerated before the injection of another antibody. The process was repeated until all antibodies were analyzed. The off-rates of antibodies were obtained from fitting the experimental data locally to 1:1 interaction model using the Biacore® T200/8K evaluation software. The antibodies were ranked by their dissociation rate constants (off-rates, kd).

T1 sequence (Q08722 19-139 limits assumed): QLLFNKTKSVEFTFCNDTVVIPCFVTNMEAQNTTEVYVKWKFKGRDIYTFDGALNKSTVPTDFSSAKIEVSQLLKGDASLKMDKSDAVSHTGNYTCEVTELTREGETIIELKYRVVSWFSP

B1: VH1+VL4 (antibody, human IgG4 S228P, kappa, V domains shown)
VH: QVQLVQSGAEVKKPGASVKVSCKASGYTFTSSVIHWVRQAPGQGLEWMGYINPYSDGTKFNEKCKIRVTMTRDTSISTAYMELSRLRSDDTAVYYCARGLIGTRYDSWFAYWGQGTLVTVSS
VL: DIQMTQSPSSLSASVGDRVTISCRTSQDINNYLNWYQQKPGKTVKLLIYYTSRLHSGVPSRFSGSGSGTDYTFTISSLQPEDIATYFCQQGNTLPYTFGGGTKVEIKR
notes: Humanized IgG, hIgG4 CH (S228P) and human kappa CL; leader residues 1-19 of each entry left out; Tested from supernatant; also called U0959FD090-VH1 + U0959FD090-VL4
Take B1: binding was put at a Kd of 0.266 nM, the koff came out at 0.00128 s⁻¹ and the association rate constant (kon) is 4.8e+06 M⁻¹ s⁻¹.

B2: VH4+VL3 (antibody, human IgG4 S228P, kappa, V domains shown)
VH: QVQLVQSGAEVKKPGASVKVSCKASGYTFTSSVIHWVKQAPGQGLEWLGYINPYSDGTKFNEKCKIRATMTSDKSISTAYMELSRLRSDDTAVYYCARGLIGTRYDSWFAYWGQGTLVTVSS
VL: DIQMTQSPSSLSASVGDRVTITCRTSQDINNYLNWYQQKPGKAVKLLIYYTSRLHSGVPSRFSGSGSGTDYTFTISSLQPEDIATYFCQQGNTLPYTFGGGTKVEIKR
notes: Humanized IgG, hIgG4 CH (S228P) and human kappa CL; leader residues 1-19 of each entry left out; Tested from supernatant; also called U0959FD090-VH4 + U0959FD090-VL3
The molecule B2 came in with a Kd of 0.591 nM, a koff of 0.00287 s⁻¹ and a kon of 4.85e+06 M⁻¹ s⁻¹.

B3: VH1+VL3 (antibody, human IgG4 S228P, kappa, V domains shown)
VH: QVQLVQSGAEVKKPGASVKVSCKASGYTFTSSVIHWVRQAPGQGLEWMGYINPYSDGTKFNEKCKIRVTMTRDTSISTAYMELSRLRSDDTAVYYCARGLIGTRYDSWFAYWGQGTLVTVSS
VL: DIQMTQSPSSLSASVGDRVTITCRTSQDINNYLNWYQQKPGKAVKLLIYYTSRLHSGVPSRFSGSGSGTDYTFTISSLQPEDIATYFCQQGNTLPYTFGGGTKVEIKR
notes: Humanized IgG, hIgG4 CH (S228P) and human kappa CL; leader residues 1-19 of each entry left out; Tested from supernatant; also called U0959FD090-VH1 + U0959FD090-VL3
Take B3: binding was characterised by a dissociation constant (Kd) of 0.274 nM, the dissociation rate constant (koff) was found to be 0.00137 s⁻¹ and the kon was determined as 5e+06 M⁻¹ s⁻¹.

B4: VH4+VL1 (antibody, human IgG4 S228P, kappa, V domains shown)
VH: QVQLVQSGAEVKKPGASVKVSCKASGYTFTSSVIHWVKQAPGQGLEWLGYINPYSDGTKFNEKCKIRATMTSDKSISTAYMELSRLRSDDTAVYYCARGLIGTRYDSWFAYWGQGTLVTVSS
VL: DIQMTQSPSSLSASVGDRVTITCRTSQDINNYLNWYQQKPGKAPKLLIYYTSRLHSGVPSRFSGSGSGTDFTFTISSLQPEDIATYYCQQGNTLPYTFGGGTKVEIKR
notes: Humanized IgG, hIgG4 CH (S228P) and human kappa CL; leader residues 1-19 of each entry left out; Tested from supernatant; also called U0959FD090-VH4 + U0959FD090-VL1
The molecule B4 showed a Kd of 0.839 nM, an off-rate (koff) of 0.005 s⁻¹ and an on-rate constant (kon) of 5.96e+06 M⁻¹ s⁻¹.

B5: VH1+VL1 (antibody, human IgG4 S228P, kappa, V domains shown)
VH: QVQLVQSGAEVKKPGASVKVSCKASGYTFTSSVIHWVRQAPGQGLEWMGYINPYSDGTKFNEKCKIRVTMTRDTSISTAYMELSRLRSDDTAVYYCARGLIGTRYDSWFAYWGQGTLVTVSS
VL: DIQMTQSPSSLSASVGDRVTITCRTSQDINNYLNWYQQKPGKAPKLLIYYTSRLHSGVPSRFSGSGSGTDFTFTISSLQPEDIATYYCQQGNTLPYTFGGGTKVEIKR
notes: Humanized IgG, hIgG4 CH (S228P) and human kappa CL; Tested from supernatant; also called U0959FD090-VH1 + U0959FD090-VL1
In turn, B5 yielded a Kd of 0.412 nM, a koff of 0.0021 s⁻¹ and a kon of 5.1e+06 M⁻¹ s⁻¹.

B6: VH3+VL3 (antibody, human IgG4 S228P, kappa, V domains shown)
VH: QVQLVQSGAEVKKPGASVKVSCKASGYTFTSSVIHWVKQAPGQGLEWLGYINPYSDGTKFNEKCKIRVTLTSDTSISTAYMELSRLRSDDTAVYYCARGLIGTRYDSWFAYWGQGTLVTVSS
VL: DIQMTQSPSSLSASVGDRVTITCRTSQDINNYLNWYQQKPGKAVKLLIYYTSRLHSGVPSRFSGSGSGTDYTFTISSLQPEDIATYFCQQGNTLPYTFGGGTKVEIKR
notes: Humanized IgG, hIgG4 CH (S228P) and human kappa CL; leader residues 1-19 of each entry left out; Tested from supernatant; also called U0959FD090-VH3 + U0959FD090-VL3
B6: the dissociation constant Kd was determined as 0.602 nM, the dissociation rate constant (koff) was 0.00312 s⁻¹ and the association rate constant (kon) worked out at 5.18e+06 M⁻¹ s⁻¹.

B7: VH3+VL4 (antibody, human IgG4 S228P, kappa, V domains shown)
VH: QVQLVQSGAEVKKPGASVKVSCKASGYTFTSSVIHWVKQAPGQGLEWLGYINPYSDGTKFNEKCKIRVTLTSDTSISTAYMELSRLRSDDTAVYYCARGLIGTRYDSWFAYWGQGTLVTVSS
VL: DIQMTQSPSSLSASVGDRVTISCRTSQDINNYLNWYQQKPGKTVKLLIYYTSRLHSGVPSRFSGSGSGTDYTFTISSLQPEDIATYFCQQGNTLPYTFGGGTKVEIKR
notes: Humanized IgG, hIgG4 CH (S228P) and human kappa CL; leader residues 1-19 of each entry left out; Tested from supernatant; also called U0959FD090-VH3 + U0959FD090-VL4
Molecule B7 displayed an equilibrium dissociation constant (Kd) of 0.555 nM, a koff of 0.00305 s⁻¹ and a kon of 5.49e+06 M⁻¹ s⁻¹.

B8: VH1+VL2 (antibody, human IgG4 S228P, kappa, V domains shown)
VH: QVQLVQSGAEVKKPGASVKVSCKASGYTFTSSVIHWVRQAPGQGLEWMGYINPYSDGTKFNEKCKIRVTMTRDTSISTAYMELSRLRSDDTAVYYCARGLIGTRYDSWFAYWGQGTLVTVSS
VL: DIQMTQSPSSLSASVGDRVTITCRTSQDINNYLNWYQQKPGKAVKLLIYYTSRLHSGVPSRFSGSGSGTDFTFTISSLQPEDIATYFCQQGNTLPYTFGGGTKVEIKR
notes: Humanized IgG, hIgG4 CH (S228P) and human kappa CL; leader residues 1-19 of each entry left out; Tested from supernatant; also called U0959FD090-VH1 + U0959FD090-VL2
For B8, binding was characterised by a dissociation constant (Kd) of 0.368 nM, the koff amounted to 0.00159 s⁻¹ and the kon was 4.32e+06 M⁻¹ s⁻¹.

B9: VH2+VL4 (antibody, human IgG4 S228P, kappa, V domains shown)
VH: QVQLVQSGAEVKKPGASVKVSCKASGYTFTSSVIHWVRQAPGQGLEWLGYINPYSDGTKFNEKCKIRATMTSDTSISTAYMELSRLRSDDTAVYYCARGLIGTRYDSWFAYWGQGTLVTVSS
VL: DIQMTQSPSSLSASVGDRVTISCRTSQDINNYLNWYQQKPGKTVKLLIYYTSRLHSGVPSRFSGSGSGTDYTFTISSLQPEDIATYFCQQGNTLPYTFGGGTKVEIKR
notes: Humanized IgG, hIgG4 CH (S228P) and human kappa CL; leader residues 1-19 of each entry left out; Tested from supernatant; also called U0959FD090-VH2 + U0959FD090-VL4
On to B9, for which the dissociation constant Kd came out at 0.585 nM, the off-rate (koff) worked out at 0.00332 s⁻¹ and the kon worked out at 5.67e+06 M⁻¹ s⁻¹.

In general, Kd refers to the concentration at which binding is half-saturated. Usually koff stands for the first-order rate constant of dissociation. A lower koff goes with slow dissociation. For orientation: kon means the second-order rate constant of association. A higher kon goes with fast association.

These data come from patent US20220204613A1 (D 10 THERAPEUTICS, published 2022).
